From the nanobody polyreactivity screen of Harvey et al. (2022)

Test: yeast display, Sf9 membrane polyspecificity reagent, FACS + sequencing; frameworks hold sequencing errors
Outline: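 Genes from sorted yeast were amplified by colony PCR, read by MiSeq 2 × 250 sequencing and filtered on CDR length. These cells carried a synthetic nanobody library in Saccharomyces cerevisiae BJ5465 and were sorted by FACS into low and high (top ~1%) gates on anti-HA and streptavidin fluorescence. Polyreactivity is labelled according to the gate of origin.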

Row | Sequence | polyreactivity (PSR sort gate)
1 | QVHLVESGGGLVQAGGILLLSCAASGYDMGWYRQAPGKERELVAAISRGGSTSYADSVKGRFTISRDNAKNTVYLQMNSLKPEDTAVYYCAARYGSYRVGYDYWGQGTQVTVSS | low polyreactivity
2 | QVHLVESGGGLVQAGGILRLSCAASGFIYTKYTMGSYRQAPGKEREMVAAITGRGTSTYADSVKGRFTISRDNAKNSVYLQMNRLKPEDTAVYYCASVGWFADFMFSDINGYYWGQGTEVTVSS | low polyreactivity
3 | QVHLVESGGGLVQAGGILRLSCAASGRTFRRYAMGWYRQAPGKERELVAVISGGGTYYADSVKGRFTISRDNAKNTVYLQMNSLKPEDTAVYYCNARSYQSARVRGGYWGQGTQVTVSS | high polyreactivity
4 | QVHLVESGGGLVQAGGILRLSSPASGSISGWYAMGWSRQEPGKERELVSDMTRGGRTYYADSVKGRFTISRDNAKNTVYLQMNSLKPEDTAVYYCASPSPSYYYRSGWGSYYSWGLGTQVTVSS | high polyreactivity
5 | QVHLVESGGGLVQAGGILRLSWASSGFIFPRYAMGSYRQAPGKERELVAGITSRGTGTYYADSVKGRFTISRDNAKNTVYLQMNSLKQEDTAVYYCARLSTKPLPYDDWGQGTQVTVSS | high polyreactivity
6 | QVHLVESGGGLVQAGGILRVSCAASGRIFRTYVMGWYRQAPGKERELVAAITQRGGTTYYADSVKRRFTISRDNAKNTVYLQMNSLKPEDTAVYYCATRYRYYTERDYWGLGTQVTVSS | high polyreactivity
7 | QVHLVESGGGLVQAGGNLRLICAASGSIFSDYTIGWYRQAPGKERELVAVITLSSGSTYFADSVKGRFTISRDNAKNTDYLQMNSLKPEDTAVYYCAADGWYYFGSGVFEYDYWRQGTQVTVSS | low polyreactivity
8 | QVHLVESGGGLVQAGGRLRLSCAASGSIFGYNAMGWYRQAPGKERELVAAISSTGGSTYYADSVKGRFTISRDNAKNTVYLQMNSLYPEDTAVYYCAKRGQSYFKGYDYWGQGTQVTVSS | low polyreactivity
9 | QVHLVESGGGLVQAGGSHRITCAASGITFVGNARGWYRQAPGKERELVAAIRWSSGRTYYADSVKGRFTISRDNAKNTVYLQMNSLKPEDTAVYYCATDYHYSQYYRFYYWGQGTQVTVSS | high polyreactivity
10 | QVHLVESGGGLVQAGGSLLLSCAASGGTFAAYAMGWYRQAPGKERELVAAIDSGGTTKYADSVKGRFTISRDNAKNTVYLQMSCLKPEDTAVYYCAAVYRITFGYHTSRAFDYWGQGTQVTVSS | low polyreactivity
11 | QVHLVESGGGLVQAGGSLRISCAASGNIFPNNGMGWNRQAPGKERELVAAISFNGDDTYADSVKGRFTISRDNAKNTVYLKMNSLNPEDTAVYYCNAVPGADQFSAPVITTAEDYWGQGTQVTVSS | low polyreactivity
12 | QVHLVESGGGLVQAGGSLRISCAASGRTFYIYAMGWYRQAPGKERELVAAISWGSGSTYYADSVKGRFTISRDNAKNTVYLQMNSLKPEDTAVYYCAADYAYPSEWTYDYWGQGTQVTVSS | low polyreactivity
13 | QVHLVESGGGLVQAGGSLRLNCAASGRTFTEYAMGWYTPAPGKERELVAAITTVGSTYYADSVKGRFTISRDNAKNTVDIQMNSQKPEDTAVYYCDVERDYWTKASYYWGQGTQVTVSS | low polyreactivity
14 | QVHLVESGGGLVQAGGSLRLRCAASGFILGAYAMGWYRQAPGKERELDAAISYSGGRTYYADSVKGRFTISRDNAKNTVYLQMNSQNPEDTAVYYCAADWYYGYFFSVAGEHEYCGQGTQVTVSS | high polyreactivity
15 | QVHLVESGGGLVQAGGSLRLSCAASASIFRYYAMGRYRQAPGKERELVATISSGGRTYYADSVKGRFTISRDNAKNTVYLQMNSLKPEDPAVYYCAAVRLTWTAKYNYWGQGTQVTVSS | high polyreactivity
16 | QVHLVESGGGLVQAGGSLRLSCAASGFIFIRYAMGWYRQAPGKERELVAAINGGGSSTYYADSVKGRFTISRDNAKYTVYLQMNSLKPEDTAVDYCDADTDSWWYYLYYGDGFDYWGQGTQVTVSS | high polyreactivity
17 | QVHLVESGGGLVQAGGSLRLSCAASGFIFISNSMGCYRQEPGKERELVARISDTDRTHYADSVKGRFTISRDNAKNTVYLQMNSQNPEDTAVYSCATDQSLLDKVYYDVQYDFWGQGTQVTVSS | low polyreactivity
18 | QVHLVESGGGLVQAGGSLRLSCAASGFIFSYYAMGWYRQAPGKERELVAAISWTGGSTYYADSVKGRFTISRDNAKNTVYLQMNSLKPEDTAVYYCNKYYRAWLLWDYGYWGQGTQVTVSS | high polyreactivity
19 | QVHLVESGGGLVQAGGSLRLSCAASGFIFVRNAMGWYSQAPGKEREFVAAITRSGGSTYYADSVKVRFTISRDNAKNTVYLQMYSLKPEDTAVYYCAVLYHSRDSYTYRDEDYWGQGTQVTVSS | low polyreactivity
20 | QVHLVESGGGLVQAGGSLRLSCAASGFIFYPYAMGWYRQAPGKERELVAAITSSGGSTYYADSVKGRFTISRDNAKNTVYLQMNSLKPEDTAVYYCAAYTSYYGTIIAYRYYYWGQGTQVTVSS | high polyreactivity
21 | QVHLVESGGGLVQAGGSLRLSCAASGFNFLIYAMGWYRQAPGKERELVAAITLRGSGTYYADSVKGRFTISRDNAKNTVYLQMNSLKPEDTAVYDCAAGTARRTYDYWGQGTQVTVSS | low polyreactivity
22 | QVHLVESGGGLVQAGGSLRLSCAASGFTFDFYAMGWYRQAPGKERELVAAISKNDGTTYYADSVKGRFTISRDNAKNTVYLQLNSLKPEDTAVYYCAAESGYPVYTYVSSGDYWGQGTQVTVSS | low polyreactivity

Row | Sequence | polyreactivity (PSR sort gate)
23 | QVHLVESGGGLVQAGGSLRLSCAASGFTFPHYAMGWYRQAPGKERELVAAISFSGGRTYYADSVKGRFTISRDHSKNTVYVQMNSLKPEDTAVYYCNVPYYSFRELSYYYWGQGTQVTVSS | high polyreactivity
24 | QVHLVESGGGLVQAGGSLRLSCAASGFTFSFYAMGWYRQAPWKEIEFVAAITNSGGSTYYADSVKGRFTISRDNSKNSVYLQMNSLKPEDTAVYYCATKRAWPGYFTYYYWGQGTQVTVSS | high polyreactivity
25 | QVHLVESGGGLVQAGGSLRLSCAASGFTFVQYAMGWYRQAPGKERELVATISKSGGITYYADSVKGRFTISRDNAKNTVYLQMNSLKPEDTSVYYCAAAWYYSSRGFHATWGHDYWGQGTQVTVSS | low polyreactivity
26 | QVHLVESGGGLVQAGGSLRLSCAASGFTFVRYAMGWYRQAPGKERELVASISYSGGSTYYADSVKGRFTISRDNAKNTVYVQMNSLKPEATAVYYCAAVIYRGYYYWGQGTQVTVSS | high polyreactivity
27 | QVHLVESGGGLVQAGGSLRLSCAASGFTFYQYAMGWYRQAPGKERELVAAITASGGSTYYADSVKRRFTISRDNAKNTVYLQMNSLKPEDTAVYYCAAERYFVLYRYYSYAYYYWGQGTQVTVSS | high polyreactivity
28 | QVHLVESGGGLVQAGGSLRLSCAASGFTFYRYAMGWYRQAPGKDRELVAAITWSGGSTYYADSVKGRFTISRDNAKNTVYLQMNSLKPEDTAVYYCAADIYDGGFDYWGQGTQVTVSS | low polyreactivity
29 | QVHLVESGGGLVQAGGSLRLSCAASGFTFYYYAMGWYRQAPGKERELVATISRSVGSTYYADSVKGRFTISRDNAKNTVYLQMNSLKPEDTAVYYCAVGGYLRSVSYIRLGNYYWGQGTQVSVSS | high polyreactivity
30 | QVHLVESGGGLVQAGGSLRLSCAASGGNFRPNAMGWYRQAPGKERELVASITRGGSTNYADSVKGRFTISRDNAKNTVYLQMNSLKPEDTAVYYCSALLRYTRTLYYSWGQGTQVTVSS | high polyreactivity
31 | QVHLVESGGGLVQAGGSLRLSCAASGGTFRVYAMGWYRQAPGKEWELVASISNGGSTNYADSEKGRFTISRDNAKNTVYLQMNSLKPEDTAVYYCAADPSYEVWYYDSPEYNYWGQGTQVTVSS | low polyreactivity
32 | QVHLVESGGGLVQAGGSLRLSCAASGGTFYYNTMGWSRQAPGKERELVAAITSGTSTNYADSVKGRFTISRDNAKNTVYLQMNSRIQEDTAVFDCAADPDADDPRRGYDYWGQGTQVTVSS | low polyreactivity
33 | QVHLVESGGGLVQAGGSLRLSCAASGIIFPWTAMGWYRQAPGKERELVAAITSRGSNTYYADSVKGRFTISRDNAKNTVYLQMNSLKPEDTAVYYCAVDSFYYGKYGYWGQGSQVTVSS | high polyreactivity
34 | QVHLVESGGGLVQAGGSLRLSCAASGIIFYYNAMGWYRQAPGKERELVAVISSAGNTNYADSVKGRFTISRDNAKNTVYLQMNCLKPEDTAVYYCAAGTISRIDERNYFKMDYWGQGTQVTVSS | low polyreactivity
35 | QVHLVESGGGLVQAGGSLRLSCAASGITFDEYTMGWYRQAPGKERELVAAIDSDGSTTYADSVKGRFTISRDNAKNTVYLQMNSLKPEDSAVYYCNAEHGDFSWHYLLYDYDYWGPGTQVTVSS | low polyreactivity
36 | QVHLVESGGGLVQAGGSLRLSCAASGITFFWYTMGWYRQAPGKDRELVAAISESGGDTYYADSVKGRFTISRDNAKNTVYLQMKILKPEDTAVYYCAADDSYYGLDYWGQGTQVTVSS | low polyreactivity
37 | QVHLVESGGGLVQAGGSLRLSCAASGITFKRYAMGWYRQAPGKERELVAAISDIGGRTYYADSVKGRFTISRDNAKNTVYLQMNSLKPEDTAGYFCAADYYSPVDWYYYWGQGTQVTVSS | high polyreactivity
38 | QVHLVESGGGLVQAGGSLRLSCAASGITFNSNAMGWYRQAPGKERELVAAITVSGGNTYYADSVKGRFTISRDNAKNTVYLQMYSLKPEDTAVYYCNTASDVSWYVHYYYWRQGTQVTVSS | low polyreactivity
39 | QVHLVESGGGLVQAGGSLRLSCAASGITFRTYALGGYRQAPGKERELVAAITRGDSTYYADSVKGRFTISRDNAKNTVYLQMNILKPEDTAVYYCNTETTDFRRYEYWGQGTQVTVSS | low polyreactivity
40 | QVHLVESGGGLVQAGGSLRLSCAASGITFSKYEMGWYRQAPWKERELVAAITSTGSTYYADSVKGRFTISRDNAKNTVYLQMNSVKPEDTAVYYCAAERRVFYYCHKLTYWYDYWGQGTQVTVSS | low polyreactivity
41 | QVHLVESGGGLVQAGGSLRLSCAASGITFSPYAMGWSRQAPGKERELVAAISSGSSTKYADSVKGRFTISRDNAKNTVYLQMNSLKPEDTAVYYCAARWFDGYAAYGYWGQGTEVTVSS | high polyreactivity
42 | QVHLVESGGGLVQAGGSLRLSCAASGLIFAFYGMGWYRPAPGKERELVASIDKSGGSTYADSVKGRFTISRDNAKNTVYLQMNSLKPEDTAVSYCATNVGGGWAYEYWGQGTQVTVSS | low polyreactivity
43 | QVHLVESGGGLVQAGGSLRLSCAASGLIFLWNAMGWYRQAPGKERELVAAISWSGGSTYYADSVKGRFTISRDNAKNTVYLQMNSLKPEDTAVYYCIRLLSLEFGFWGQGTQVTVSS | high polyreactivity
